Assays:
Pdx3 = target: T1, Pdx3 (Saccharomyces cerevisiae, UniProt P38075); assay: FMN fluorescence quenching titration (Ex […] nm, Em […] nm); size-exclusion chromatography co-elution; type: binding; details: 1 uM FMN titrated with protein, 25 C, pH 7.4; protein as purified already carries FMN
T1 construct: full-length, synthetic gene in pET28a (NdeI/BamHI), N-terminal His-tag cut by thrombin; E. coli BL21 DE3 Rosetta; 27189 Da; homodimer
T1 sequence (P38075 1-228): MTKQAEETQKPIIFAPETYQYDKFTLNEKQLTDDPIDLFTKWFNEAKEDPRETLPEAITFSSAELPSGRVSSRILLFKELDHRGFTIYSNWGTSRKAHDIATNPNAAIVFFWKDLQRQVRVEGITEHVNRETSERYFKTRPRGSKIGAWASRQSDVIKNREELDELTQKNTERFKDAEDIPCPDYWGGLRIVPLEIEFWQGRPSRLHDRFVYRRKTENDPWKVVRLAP

[1] = target: the molecule itself; assay: SEC; analytical size-exclusion chromatography, Superdex 75 3.3/300, 10 uM protein, 10 uL injected, buffer A (20 mM Tris, 150 mM NaCl, 1 mM DTT pH 7.4), tryptophan fluorescence; calibrated with transthyretin tetramers (54 kDa) and chymotrypsin monomers (25 kDa)

## Cc1cc2nc3c(=O)[nH]c(=O)nc-3n(C[C@H](O)[C@H](O)[C@H](O)COP(=O)(O)O)c2cc1C [FMN]
Pdx3
  FMN fluorescence quenching titration (Ex 450 nm, Em 520 nm); size-exclusion chro: Pdx3 produced a clear quenching effect due to FMN binding

B1: Ypr172w (natural protein, S. cerevisiae, UniProt Q06608 1-200, looked up)
chain: MAWTSTLPAHLLNLIKNSKYVHVATCSKDCIPSVALMNYIYVPGEKLFGQTDNKNDYIIFVSPQDTQKFYNIKENPKVALLFHDWIIANNLSVGKESISGTPTPTSIPHEEQRQSELLNLLQELNQAELNQMSASIGGETEIVNPESEESKYYKDLILKANPDAKAFIFEKNTAVVKVRIDNARVSNNENRTMFLSKGKS
notes: expected mass after thrombin digestion 22788 Da; A few residues of the vector probably remain after thrombin cleavage (surmised); also called putative P(N/M)P oxidase; source: E. coli BL21 DE3 Rosetta, purified (His Trap HP, thrombin digestion, Superdex 200 gel filtration); not shown: His-tag, N-terminal, cleaved
[1]
  stoichiometry N: 2

B2: Ylr456w (natural protein, S. cerevisiae, UniProt Q06199 1-204, looked up)
chain: MKLNEQIPKDLLRLIKSSKYVHVATCSSNCIPSVSLMHYIFVSSAETFHKHEYSIEIDCNDYIIFTVFEKSVTFRNVMSNPNVALLFHDWITAKNLTLRKKSVHSKDDFSFVESESTKFNNFLRDLNQSELNQVSATINGIADIVNPNSEESTYYRRLLLTVNPDADIFILGEDTAIIKVNIQKIKVSDMENNTSTYGQTVQPV
notes: Ylr456w, product of the ORF YLR456W of S. cerevisiae (strain BY4741 cDNA), amplified with primers from the ATG to the stop codon, cloned NdeI/BamHI into pET28a; expected mass after thrombin digestion 23574 Da; A few residues of the vector probably remain at the N-terminus after thrombin cleavage (surmised); also called putative P(N/M)P oxidase; source: E. coli BL21 DE3 Rosetta, purified (His Trap …)
[1]
  stoichiometry N: 2

B3: Pdx3 (enzyme, S. cerevisiae, UniProt P38075 1-228, looked up)
chain: T1 sequence (P38075 1-228)
notes: expected mass after thrombin digestion 27189 Da; A few residues of the vector probably remain after thrombin cleavage (surmised); also called P(N/M)P oxidase; pyridoxamine 5'-phosphate oxidase; source: E. coli BL21 DE3 Rosetta, purified (His Trap HP, thrombin digestion, Superdex 200 gel filtration); not shown: His-tag, N-terminal, cleaved
[1]
  stoichiometry N: 2

Reference: paper PMC4556617, “Experimental Evidence for a Revision in the Annotation of Putative Pyridoxamine 5'-Phosphate Oxidases P(N/M)P from Fungi” (PLoS ONE, 2015)
